± gives the uncertainty stated by the source.
Test: self-splicing fitness, log relative to wild type (ln ratio); higher = more splicing; Tetrahymena group I intron in knt gene, E. coli kanamycin selection, DiMSum; sequences stand for … in CUCUCU…GGAGGGAAAAGUUAUCAGGCAUGCACCUGGUAGCUAGUCUUUAAACCAAUAGAUUGCAUCGGUUUAAAAGGCAAGACCGUCAAAUUGCGGGAAAGGGGUCAACAGCCGUUCAGUACCAAGUCUCAGGGGAAACUUUGAGAUGGCCUUGCAAAGGGUAUGGUAAUAAGCUGACGGACAUGGUCCUAACCACGCAGCCAAGUCCUAAGUCAACAGAUCUUCUGUUGAUAUGGAUGCAGUUCACAGACUAAAUGUCGGUCGGGGAAGAUGUAUUCUUCUCAUAAGAUAUAGUCGGACCUCUCCUUAAUGGGAGCUAGCGGAUGAAGUGAUGCAACACUGGAGCCGCUGGGAACUAAUUUGUAUGCGAAAGUAUAUUGAUUAGUUUUGGAGUACUCGUGGUCG
How it was run: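 Library with all eight P1ex-region intron nucleotides randomised, intron inside the knt kanamycin-resistance gene on pET-22b(+), in E. coli BL21(DE3). Cells grew overnight at 37°C or 30°C on LB agar with or without 25 μg/mL kanamycin (plus 100 μg/mL carbenicillin, 50 μM IPTG, 0.2% rhamnose), in six replicate transformations. Pooled colonies were amplicon-sequenced on Illumina HiSeq 2500. DiMSum fitness is the error-weighted combination of wild-type-normalised replicate fold changes, kanamycin versus none.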

Row | Sequence | self-splicing fitness (ln) (30 °C) | self-splicing fitness (ln) (37 °C)
1 | CGAGAGCAAUAUUACGCGGU | -3.23 ± 0.23 | -2.4 ± 0.24
2 | CGAGAGCAAUAUUACGCUAG | – | -2.77 ± 0.4
3 | CGAGAGCAAUAUUACGCUGC | -2.93 ± 0.36 | -2.48 ± 0.37
4 | CGAGAGCAAUAUUACGGAAC | -1.56 ± 0.44 | –
5 | CGAGAGCAAUAUUACGGAGG | -2.7 ± 0.49 | –
6 | CGAGAGCAAUAUUACGGCGG | -1.63 ± 0.14 | -0.665 ± 0.26
7 | CGAGAGCAAUAUUACGGCGU | -2.46 ± 0.28 | -1.2 ± 0.19
8 | CGAGAGCAAUAUUACGGCUC | -1.09 ± 0.21 | –
9 | CGAGAGCAAUAUUACGGGUG | -2.95 ± 0.15 | -2.01 ± 0.16
10 | CGAGAGCAAUAUUACGUCGG | -2.51 ± 0.15 | -0.79 ± 0.15
11 | CGAGAGCAAUAUUACGUUUC | -2.76 ± 0.25 | -2.59 ± 0.27
12 | CGAUAGCAAUAUUACGAAAU | -3.36 ± 0.28 | -2.5 ± 0.33
13 | CGAUAGCAAUAUUACGAACA | -2.13 ± 0.47 | -1.38 ± 0.27
14 | CGAUAGCAAUAUUACGAACU | -0.913 ± 0.097 | -0.465 ± 0.13
15 | CGAUAGCAAUAUUACGACCA | -0.39 ± 0.46 | -0.619 ± 0.33
16 | CGAUAGCAAUAUUACGAGAA | -2.67 ± 0.36 | -2.73 ± 0.47
17 | CGAUAGCAAUAUUACGAGCG | -0.984 ± 0.12 | -0.453 ± 0.13
18 | CGAUAGCAAUAUUACGAGGA | -3.08 ± 0.38 | -2.27 ± 0.38
19 | CGAUAGCAAUAUUACGAGUA | -2.16 ± 0.26 | -1.88 ± 0.19
20 | CGAUAGCAAUAUUACGAGUG | -0.68 ± 0.08 | -0.335 ± 0.096

Row | Sequence | self-splicing fitness (ln) (30 °C) | self-splicing fitness (ln) (37 °C)
21 | CGAUAGCAAUAUUACGAUCG | -2.55 ± 0.24 | -2.39 ± 0.38
22 | CGAUAGCAAUAUUACGCACC | -2.55 ± 0.15 | -1.09 ± 0.16
23 | CGAUAGCAAUAUUACGCAGC | -4.01 ± 0.36 | -1.34 ± 0.24
24 | CGAUAGCAAUAUUACGCAUU | -1.87 ± 0.2 | -1.3 ± 0.21
25 | CGAUAGCAAUAUUACGCCAA | -2.66 ± 0.25 | -1.87 ± 0.15
26 | CGAUAGCAAUAUUACGCGCC | -2.04 ± 0.33 | 0.215 ± 0.24
27 | CGAUAGCAAUAUUACGCUCG | – | -2.03 ± 0.47
28 | CGAUAGCAAUAUUACGCUGC | -3.15 ± 0.36 | -2.21 ± 0.5
29 | CGAUAGCAAUAUUACGGAGU | -2.09 ± 0.16 | -3.36 ± 0.32
30 | CGAUAGCAAUAUUACGGCUC | -2.44 ± 0.14 | -1.15 ± 0.17
31 | CGAUAGCAAUAUUACGGUUC | -3.63 ± 0.27 | -1.96 ± 0.16
32 | CGAUAGCAAUAUUACGUACA | -1.98 ± 0.13 | -0.0364 ± 0.14
33 | CGAUAGCAAUAUUACGUACG | -1.83 ± 0.097 | -1.05 ± 0.1
34 | CGAUAGCAAUAUUACGUCAG | -1.39 ± 0.13 | -1.25 ± 0.14
35 | CGAUAGCAAUAUUACGUCCC | -1.28 ± 0.23 | -0.717 ± 0.28
36 | CGAUAGCAAUAUUACGUUGC | -4.22 ± 0.34 | -3.8 ± 0.22
37 | CGCAAGCAAUAUUACGAAGA | -2.75 ± 0.21 | -1.73 ± 0.17
38 | CGCAAGCAAUAUUACGACCC | -2.18 ± 0.3 | 0.0863 ± 0.29
39 | CGCAAGCAAUAUUACGACCU | -0.793 ± 0.092 | -0.711 ± 0.12
